Experimental findings from the RNAGym collection of RNA variant scans (doi:10.1093/molbev/msab373) are described below.

To fix the notation:
B1: Azoarcus group I ribozyme (parent)
chain: GUGCCUUGCGCCGGGAAACCACGCAAGGGAUGGUGUCAAAUUCGGCGAAACCUAAGCGCCCGCCCGGGCGUAUGGCAACGCCGAGCCAAGCUUCGGCGCCUGCGCCGAUGAAGGUGUAGAGACUAGACGGCACCCACCUAAGGCAAACGCUAUGGUGAAGGCAUAGUCCAGGGAGUGGCGAAAGUCACACAAACCGG

In the series the parent is B1. In words: reverse-splicing fitness (ratio to wild type); higher = more active; in vitro selection; Mg2+ level not given. The method in brief:
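An in vitro group I ribozyme library with randomized positions was T7-transcribed and gel-purified. In triplicate, 10 pmol RNA in EPPS pH 7.5 was reacted with 50 pmoles of a 30-nt RNA substrate for 1 h at 37 °C across several added MgCl2 levels (1–48 mM), then stopped with EDTA. Products were reverse transcribed from a substrate-complementary primer, PCR-amplified and sequenced (HiSeq 4000). Fitness is a variant's read proportion after selection over that before, normalised to wild type.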
With C82G A111G A120G A145G C150U, the reverse-splicing fitness amounted to 0.0167. Then C82A A111G A120U A145U C169A U176G, with 0.00145. Turning to C82G A111G A120G A145C C150U C169G U176A, the reverse-splicing fitness was 0.022. For C82G A111C A120U A145U C150A C169U U176A, the reverse-splicing fitness was determined as 0.00302. Then C82A A111U A120C A145C C150A U176A, with 0.0115; and A111C A145G C169G U176A, with 0.0283. Then C82U A111G A120G A145C C150A C169A U176A, with 0.0114; and C82G A111U A120C C150A C169G U176A, with 0.0181; and C82U A111C A145C C169U U176C, with 0.0113. On to C82A A111U A120G A145U C169U U176G, for which the reverse-splicing fitness was found to be 0.0047. With A111C A145G C150U C169U U176A, the reverse-splicing fitness worked out at 0.0237. On to C82G A120G A145G C150U C169A U176C, for which the reverse-splicing fitness came out at 0.0181. Then C82U A145C C150G C169G, with 0.00699. On to A111U A120C C150G C169A U176C, for which the reverse-splicing fitness was 0.0104. Next, C82G A120C A145C C150A C169U U176C: 0.0101; C82U A145C C150G: 0.0813; C82A A111U A120G A145U C169U: 0.00974. Then C82A A111G A120U A145G C150G C169G, with 0.00653; and C82A A111C A145C C150G U176C, with 0.016.

In the case of C82A A111U A120U A145C C150G U176C, the reverse-splicing fitness came out at 0.00415. On to C82U A120U A145G C150U C169A, for which the reverse-splicing fitness stood at 0.00495.

Turning to C82U A111U A120C A145U U176A, the reverse-splicing fitness was found to be 0.0127.

With C82U A111G A120U A145U C150A C169A U176C, the reverse-splicing fitness was 0.00251. Consider C82G A111G A120U A145C C169A U176C, for which the reverse-splicing fitness was 0.00168.

For the variant C82U A111C A120G A145U C150G C169G U176C, the reverse-splicing fitness is 0.00446. A120U A145G C150A C169G U176G: the reverse-splicing fitness worked out at 0.00259. On to C82U A120U C150G C169G, for which the reverse-splicing fitness is 0.0055.

For C82A A111C A145C C169G U176A, the reverse-splicing fitness was 0.0269. C82G A111G A120G A145G C150A C169G U176G: the reverse-splicing fitness was found to be 0.00618. As for C82A A145C C150G C169U, the reverse-splicing fitness is 0.00817. With C82G A111U A120G A145U C150G C169U U176C, the reverse-splicing fitness turned out to be 0.013. Next, C82A A111U A120U A145U: 0.0216; C82U A111G A120G A145G C150A C169U U176G: 0.00573. Next, A111C A120U A145C C150U C169A U176A: 0.00274. For the variant A111G A145U C150A U176C, the reverse-splicing fitness is 0.237.

As for C82U A111U A120U A145U C150U U176G, the reverse-splicing fitness is 0.00324. For C82U A111G A120U A145C C150A C169G U176C, the reverse-splicing fitness worked out at 0.00206. In the case of C82A A111C A120C A145G C150G C169G U176G, the reverse-splicing fitness is 0.00642. Next, C82A A111C C169G U176G: 0.00734. With C82G A120C A145G C150U C169A, the reverse-splicing fitness worked out at 0.0102. Then C82A A111C A145C C150G C169U U176A, with 0.00753. Next, C82U A120C A145G C150A C169G U176G: 0.00377; C82U A111U A120G A145G U176A: 0.0127; C82U A111U A145C C150U C169A U176A: 0.0108. For the variant C82U A111G A120U C150G U176A, the reverse-splicing fitness is 0.00422. Turning to C82U A111C A120U C150G C169U, the reverse-splicing fitness was determined as 0.00611. On to C82A A111G A120G A145G C169A, for which the reverse-splicing fitness was determined as 0.0101. Next, C82U A111G A145U C150A C169G U176C: 0.0113; C82U A111C A120G A145U C150U: 0.0111.

For the variant C82A A111U A120C A145G C150A C169A U176C, the reverse-splicing fitness was 0.0279. Next, C82G A111U A120G A145C C150A C169G U176C: 0.0144; C82A A111C A120G C150U C169G U176A: 0.0134; C82G A120G A145U C150A C169G: 0.00926. In the case of C82A A120U A145C C150A C169G U176A, the reverse-splicing fitness amounted to 0.00253. As for C82G A111G A145U C150U C169U U176G, the reverse-splicing fitness is 0.00549.

On to C82A A111G A145C C150A C169G U176G, for which the reverse-splicing fitness came out at 0.00722. Then A111G A145U C150U U176G, with 0.317. As to C82G A111C A120U A145G C150A C169A U176C, the reverse-splicing fitness was found to be 0.00453. In the case of C82G A111U C150U C169G, the reverse-splicing fitness was 0.00914. On to C82A A145C C169U U176G, for which the reverse-splicing fitness is 0.00467. Then C82G A111C A120U A145U C150A U176C, with 0.00583; and C82A A111C A120G A145C, with 0.0129. With A111C A120C A145G C150U U176G, the reverse-splicing fitness stood at 0.0297. Next, A111C A120G A145G C150U: 0.139; C82A A145U C150U C169U: 0.0127. Regarding C82G A111C A120U A145U C169U, the reverse-splicing fitness turned out to be 0.00412. Then C82A A111U A120C C150G U176A, with 0.00671; and C82A A111U A145C C150U C169A U176A, with 0.0133. In the case of C82A A111C A145U C150A C169A U176A, the reverse-splicing fitness amounted to 0.0148.

Take C82G A111G A120C A145C U176G: the reverse-splicing fitness was determined as 0.00938. Next, C82G A111U A120G A145U C150U C169U U176G: 0.00486. Then A111U A120U A145G C150U, with 0.486; and C82A A111G A120G A145C C150A C169G U176G, with 0.00565.

With C82U A111U A120C A145C C150U C169G, the reverse-splicing fitness stood at 0.00639. Then C82A A120G A145G C150A C169U, with 0.00961. Then C82U A111C A145C C169G U176G, with 0.00669. In the case of C82G A120G A145U C150U U176A, the reverse-splicing fitness stood at 0.0121. Next, C82U A111C A120U A145G C150U C169A U176C: 0.00367; C82U A111U A120U A145U C150G U176A: 0.00312; C82A A111U A120G A145G C150A C169U U176A: 0.0197. On to C82G A111U A120C C150G U176A, for which the reverse-splicing fitness amounted to 0.00531.

As for A120G C150A C169U U176G, the reverse-splicing fitness came to 0.00851. On to A120G C150A C169U U176A, for which the reverse-splicing fitness amounted to 0.0635.
